Test results published in article PMC5824709, “Metabolite profiling with HPLC-ICP-MS as a tool for in vivo characterization of imaging probes” (EJNMMI Radiopharmacy and Chemistry, 2018).
Where a SMILES comes first, the peptide text is derived from it. Bridges are numbered along the chain shown (N, C = ends). [ ]: non-standard residue; d: D form. The star is where a group is joined. DOTA(p-xylylenediamine) = O=C(O)CN1CCN(CC(=O)O)CCN(CC(=O)NCc2ccc(CN*)cc2)CCN(CC(=O)O)CC1; DOTA = O=C(O)CN1CCN(CC(=O)O)CCN(CC(=O)*)CCN(CC(=O)O)CC1; Tyr(3-Cl) = N[C@@H](Cc1ccc(O)c(Cl)c1)C(=O)O; Hyp = O=C(O)[C@@H]1C[C@@H](O)CN1

Legend:
[1] = Size exclusion chromatography HPLC-ICP-MS of plasma samples to detect transchelation to plasma proteins; type: in vivo; details: rats, i.v., SEC HPLC-ICP-MS (BioSep-SEC-s2000, TBS), compared with pure Ga-/In-transferrin standard
Procedure: Ga and In transferrin complexes were synthesized using a 1.3 equivalent excess of protein and purification with Zeba™ Spin Desalting Columns (ThermoFisher Scientific), to remove unchelated Ga and In. TBS buffer was prepared by mixing 150 mM NaCl, 50 mM Tris and 5 mM NaHCO3 followed by stirring over chelex overnight and subsequent filtration.
An Agilent 8800 ICP-MSMS interfaced to an Agilent 1260 HPLC was used. 20% option gas (20% O2, 80% Ar) was added to pyrolyze any carbon deposits on the cones from the HPLC mobile phase while 40% O2 was used as cell gas when conducting reverse phase analysis. HPLC method 3: C18 column (Kromasil 5 μm C18, 250 × 4.60 mm), 0.8 mL/min, mobile phase A (water, 10 mM NaOAc), mobile phase B (90% acetonitrile, 10% 10 mM NaOAc), gradient: min. 0–2: 5% B; min 12: 50% B; min 13: 95% B; min 15: 95% B; min 16: 5% B; min 18: 5% B. HPLC method 4: size exclusion chromatography (SEC) Column (Phenomenex BioSep-SEC-s2000, 300 × 7.80 mm), 1 mL/min, mobile phase TBS, isocratic, 18 min. […] Ga(DOTA) and In(DOTA) were used to determine the limit of detection and limit of quantification, and to generate a calibration curve for quantification using RP-separation. […] 100 μL of each standard was analyzed by direct injection onto the reverse phase HPLC-ICP-MS (HPLC method 3), and the integrals of each metal-FBP peak were recorded. An aliquot of each calibration standard was then digested 1:1 with nitric acid and incubated overnight at 37 °C before being analyzed for its metal concentration by ICP-MS. These metal concentrations were plotted against the previously recorded integrals to generate the metal-FBP calibration plots (Additional file 1: Figure S1). Limits of detection and quantification were calculated using an established method (MacDougall & Crummett [1980]).
Ga-FBP17, Ga-FBP18, In-FBP15, In-FBP19 (50–150 nmol, with concentrations determined by direct inject ICP-MS) in 0.6 mL sterile PBS were injected either individually or as a mixture of Ga-FBP17/In-FBP15 or Ga-FBP18/In-FBP19 into anesthetized rats via cannulated femoral vein, followed by saline flush. […]

[2] = Plasma pharmacokinetics and metabolite profiling by reverse phase HPLC-ICP-MS after i.v. injection; type: in vivo; details: rats; for metabolic behavior in plasma over time (degradation of intact probe): i.v., plasma 5-60 min post injection, C18 HPLC-ICP-MS chromatograms; for relative amount of metabolites with time post injection: plasma, C18 HPLC-ICP-MS, Ga-FBP18: metabolite group C (shortest retention times), In-FBP19: all metabolites
Procedure: An Agilent 8800 ICP-MSMS interfaced to an Agilent 1260 HPLC was used. 20% option gas (20% O2, 80% Ar) was added to pyrolyze any carbon deposits on the cones from the HPLC mobile phase while 40% O2 was used as cell gas when conducting reverse phase analysis. HPLC method 3: C18 column (Kromasil 5 μm C18, 250 × 4.60 mm), 0.8 mL/min, mobile phase A (water, 10 mM NaOAc), mobile phase B (90% acetonitrile, 10% 10 mM NaOAc), gradient: min. 0–2: 5% B; min 12: 50% B; min 13: 95% B; min 15: 95% B; min 16: 5% B; min 18: 5% B. HPLC method 4: size exclusion chromatography (SEC) Column (Phenomenex BioSep-SEC-s2000, 300 × 7.80 mm), 1 mL/min, mobile phase TBS, isocratic, 18 min. The SEC column was standardized using a protein marker kit (Sigma-Aldrich, P/N: MWGF1000). Ga(DOTA) and In(DOTA) were used to determine the limit of detection and limit of quantification, and to generate a calibration curve for quantification using RP-separation. Calibration standards of Ga(DOTA) and In(DOTA) ranging from 10 nM to 1 μM were prepared by serial dilution from stocks. 100 μL of each standard was analyzed by direct injection onto the reverse phase HPLC-ICP-MS (HPLC method 3), and the integrals of each metal-FBP peak were recorded. An aliquot of each calibration standard was then digested 1:1 with nitric acid and incubated overnight at 37 °C before being analyzed for its metal concentration by ICP-MS. These metal concentrations were plotted against the previously recorded integrals to generate the metal-FBP calibration plots (Additional file 1: Figure S1). Limits of detection and quantification were calculated using an established method (MacDougall & Crummett [1980]).
Ga-FBP17, Ga-FBP18, In-FBP15, In-FBP19 (50–150 nmol, with concentrations determined by direct inject ICP-MS) in 0.6 mL sterile PBS were injected either individually or as a mixture of Ga-FBP17/In-FBP15 or Ga-FBP18/In-FBP19 into anesthetized rats via cannulated femoral vein, followed by saline flush. Blood (0.2 mL) was drawn at time points 5, 10, 15, 30 and 60 min post injection via cannulated femoral artery into heparin-containing tubes. Tubes were centrifuged at 2000 g for 10 min to separate the plasma. Plasma was diluted 1:1 with chelex-treated TBS and 100 μL of sample was injected onto the HPLC-ICP-MSMS, scanning for Ga and In at m/z = 69 and 115, respectively. Peaks were integrated and measured against a standard calibration curve.

Row | Structure (SMILES) | transchelation to transferrin / high molecular weight species in plasma [1] | half-life ([2]; rat, iv, i.v. via femoral vein, 50–150 nmol in PBS, plasma from blood drawn 5, 10, 15, 30, 60 min post injection, intact probe quantified by C18 HPLC-ICP-MS (m/z 69 Ga, 115 In), monoexponential clearance assumed, read-out: calculated half-life of the intact complex) [min] | metabolic behavior in plasma over time (degradation of intact probe) [2] | relative amount of metabolites with time post injection [2]
1 | CC[C@H](C)[C@H](NC(=O)[C@H](Cc1c[nH]cn1)NC(=O)[C@@H]1CSSC[C@H](NC(=O)[C@H](Cc2c[nH]cn2)NC(=O)[C@H](Cc2ccccc2)NC(=O)CN2CCN(CC(=O)O)CCN(CC(=O)O)CCN(CC(=O)O)CC2)C(=O)N2C[C@H](O)C[C@H]2C(=O)N[C@@H](Cc2ccc(O)c(Cl)c2)C(=O)N[C@@H](CC(=O)O)C(=O)N[C@@H](CC(C)C)C(=O)N1)C(=O)N[C@@H](CC(C)C)C(=O)NCc1ccc(CNC(=O)CN2CCN(CC(=O)O)CCN(CC(=O)O)CCN(CC(=O)O)CC2)cc1 [Ga-FBP17] ({DOTA}-FHC[Hyp][Tyr(3-Cl)]DLCHIL-{DOTA(p-xylylenediamine)}; disulfide 3-8) | did not observe Ga-transferrin or other high molecular weight species | 9 | only minimal degradation over time | 
2 | CC[C@H](C)[C@H](NC(=O)[C@H](Cc1c[nH]c2ccccc12)NC(=O)[C@@H]1CSSC[C@H](NC(=O)[C@@H](CCC(=O)O)NC(=O)[C@H](Cc2c[nH]c3ccccc23)NC(=O)CN2CCN(CC(=O)O)CCN(CC(=O)O)CCN(CC(=O)O)CC2)C(=O)N2C[C@H](O)C[C@H]2C(=O)N[C@@H](Cc2ccc(O)c(Cl)c2)C(=O)NCC(=O)N[C@@H](CC(C)C)C(=O)N1)C(=O)N[C@@H](CCC(N)=O)C(=O)NCc1ccc(CNC(=O)CN2CCN(CC(=O)O)CCN(CC(=O)O)CCN(CC(=O)O)CC2)cc1 [Ga-FBP18] ({DOTA}-W[dE]C[Hyp][Tyr(3-Cl)]GLCWIQ-{DOTA(p-xylylenediamine)}; disulfide 3-8) | identified Ga-transferrin as a metabolite |  | rapid metabolism | increased with time post injection
3 | CC[C@H](C)[C@H](NC(=O)[C@H](Cc1c[nH]cn1)NC(=O)[C@@H]1CSSC[C@H](NC(=O)[C@H](Cc2c[nH]cn2)NC(=O)[C@H](Cc2ccccc2)NC(=O)CN2CCN(CC(=O)O)CCN(CC(=O)O)CCN(CC(=O)O)CC2)C(=O)N2C[C@H](O)C[C@H]2C(=O)N[C@@H](Cc2ccc(O)c(Cl)c2)C(=O)N[C@@H](CC(=O)O)C(=O)N[C@@H](CC(C)C)C(=O)N1)C(=O)N[C@@H](CC(C)C)C(=O)NCc1ccc(CNC(=O)CN2CCN(CC(=O)O)CCN(CC(=O)O)CCN(CC(=O)O)CC2)cc1 [In-FBP15] ({DOTA}-FHC[Hyp][Tyr(3-Cl)]DLCHIL-{DOTA(p-xylylenediamine)}; disulfide 3-8) |  |  | only minimal degradation over time | 
4 | CC[C@H](C)[C@H](NC(=O)[C@H](Cc1c[nH]c2ccccc12)NC(=O)[C@@H]1CSSC[C@H](NC(=O)[C@@H](CCC(=O)O)NC(=O)[C@H](Cc2c[nH]c3ccccc23)NC(=O)CN2CCN(CC(=O)O)CCN(CC(=O)O)CCN(CC(=O)O)CC2)C(=O)N2C[C@H](O)C[C@H]2C(=O)N[C@@H](Cc2ccc(O)c(Cl)c2)C(=O)NCC(=O)N[C@@H](CC(C)C)C(=O)N1)C(=O)N[C@@H](CCC(N)=O)C(=O)NCc1ccc(CNC(=O)CN2CCN(CC(=O)O)CCN(CC(=O)O)CCN(CC(=O)O)CC2)cc1 [In-FBP19] ({DOTA}-W[dE]C[Hyp][Tyr(3-Cl)]GLCWIQ-{DOTA(p-xylylenediamine)}; disulfide 3-8) | did not identify In-transferrin in the plasma samples |  | rapid metabolism | roughly constant with time
